Assays:
human CD3 (human) = human CD3 (human) (UniProt P07766); assay: method not stated; KD of the CD3 binding arm, used to calculate fractional receptor occupancy
[1] = target: human CD3 on T cells (human) (UniProt P07766); assay: cell-based or functional assay
[2] = target: human CEA on cells (CHO/huCEA, ASPC-1, LS1034) (human) (UniProt P06731); assay: cell-based or functional assay
Sequence of UniProt P06731 (P06731 35-702): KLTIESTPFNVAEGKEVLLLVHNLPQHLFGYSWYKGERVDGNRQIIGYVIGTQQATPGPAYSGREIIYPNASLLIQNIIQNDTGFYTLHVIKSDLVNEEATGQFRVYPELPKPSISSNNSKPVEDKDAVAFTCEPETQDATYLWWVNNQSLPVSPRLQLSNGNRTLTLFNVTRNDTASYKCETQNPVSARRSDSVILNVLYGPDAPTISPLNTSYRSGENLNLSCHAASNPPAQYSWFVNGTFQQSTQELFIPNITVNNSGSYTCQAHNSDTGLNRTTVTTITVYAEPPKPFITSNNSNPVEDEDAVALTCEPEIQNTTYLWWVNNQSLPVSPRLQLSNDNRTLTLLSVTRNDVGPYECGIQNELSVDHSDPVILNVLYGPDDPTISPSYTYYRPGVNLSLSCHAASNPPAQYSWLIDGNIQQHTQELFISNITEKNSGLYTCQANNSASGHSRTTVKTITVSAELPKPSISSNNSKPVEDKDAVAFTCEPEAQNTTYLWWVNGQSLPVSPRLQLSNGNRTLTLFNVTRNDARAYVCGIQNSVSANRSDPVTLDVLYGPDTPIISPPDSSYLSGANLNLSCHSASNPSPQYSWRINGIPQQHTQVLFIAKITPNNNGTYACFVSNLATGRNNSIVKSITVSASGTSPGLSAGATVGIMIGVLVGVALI

- Kd (human CD3 (human)): 307 nM
- EC20 of CD25 de novo expression, C/P (PBMC without CD14 cocultured with CHO/huCEA), mean [1]: 0.217 ng/mL
- EC20 of CD25 upregulation on T cells (ASPC-1 target cells, PBMC with CD3ε, 48 h), mean of 10 donors [1]: 0.376 ng/mL
- EC20 of CD69 de novo expression, A/3 (PBMC with CD3ε cocultured with ASPC-1), mean [1]: 0.105 ng/mL
- EC20 of CD69 de novo expression, C/P (PBMC without CD14 cocultured with CHO/huCEA), mean [1]: 0.134 ng/mL
- EC20 of CD69 upregulation on T cells (ASPC-1 target cells, PBMC with CD3ε, 48 h), mean of 5 donors [1]: 0.441 ng/mL
- EC20 of IFNγ release (ASPC-1 target cells, PBMC with CD3ε, 48 h), mean [1]: 1.56 ng/mL
- EC20 of IL2 release (ASPC-1 target cells, PBMC with CD3ε, 48 h), mean [1]: 0.732 ng/mL
- EC20 of IL6 release (ASPC-1 target cells, PBMC with CD3ε, 48 h), mean [1]: 1.83 ng/mL
- EC20 of IL10 release (ASPC-1 target cells, PBMC with CD3ε, 48 h), mean [1]: 0.686 ng/mL
- EC20 of TNFα release (ASPC-1 target cells, PBMC with CD3ε, 48 h), mean [1]: 1.29 ng/mL
- EC50 of CD25 upregulation on T cells (ASPC-1 target cells, PBMC with CD3ε, 48 h), mean of 10 donors [1]: 4.65 ng/mL
- EC50 of CD69 de novo expression, A/3 (PBMC with CD3ε cocultured with ASPC-1), mean [1]: 1.26 ng/mL
- EC50 of CD69 de novo expression, C/3 (PBMC with CD3ε cocultured with CHO/huCEA), one value [1]: 1.34 ng/mL
- EC50 of CD69 upregulation on T cells (ASPC-1 target cells, PBMC with CD3ε, 48 h), mean of 5 donors [1]: 13.8 ng/mL
- EC50 of IFNγ release (ASPC-1 target cells, PBMC with CD3ε, 48 h), mean [1]: 3.29 ng/mL
- EC50 of IL2 release (ASPC-1 target cells, PBMC with CD3ε, 48 h), mean [1]: 2.14 ng/mL
- EC50 of IL6 release (ASPC-1 target cells, PBMC with CD3ε, 48 h), mean [1]: 4.04 ng/mL
- EC50 of IL10 release (ASPC-1 target cells, PBMC with CD3ε, 48 h), mean [1]: 3.92 ng/mL
- EC50 of TNFα release (ASPC-1 target cells, PBMC with CD3ε, 48 h), mean [1]: 6.56 ng/mL
- mean EC20 of CD25 upregulation (PBMC with CD3ε cocultured with CHO/huCEA, E:T 10:1, 72 h) [1]: 0.269 ng/mL
- EC20 of specific lysis of ASPC-1 cells (PBMC with CD3ε, E:T 5:1, 48 h), mean of 10 donors [2]: 0.097 ng/mL
- EC20 of specific lysis, C/P (CHO/huCEA cocultured with PBMC without CD14), mean [2]: 0.371 ng/mL
- EC50 of specific lysis of ASPC-1 cells (PBMC with CD3ε, E:T 5:1, 48 h), mean of 10 donors [2]: 2.03 ng/mL
- EC50 of specific lysis, A/P (ASPC-1 cocultured with PBMC without CD14), mean [2]: 0.971 ng/mL
- mean EC20 of specific lysis of ASPC-1 cells (PBMC with CD3ε, E:T 5:1, 48 h; Example 1, 11 donors) [2]: 0.05 ng/mL
Substance: MEDI-565 (bispecific antibody)

— patent publication US20140242081A1
